Columns and labels:
eGFP-CaMKII = eGFP-CaMKII (UniProt P11275); test: number and brightness
[1] = target: nonlabeled αCaMKII (Ca2+/CaM-dependent protein kinase II, alpha) (UniProt P11275); test: number and brightness

eGFP-CaMKII, sequence (P11275 whole entry): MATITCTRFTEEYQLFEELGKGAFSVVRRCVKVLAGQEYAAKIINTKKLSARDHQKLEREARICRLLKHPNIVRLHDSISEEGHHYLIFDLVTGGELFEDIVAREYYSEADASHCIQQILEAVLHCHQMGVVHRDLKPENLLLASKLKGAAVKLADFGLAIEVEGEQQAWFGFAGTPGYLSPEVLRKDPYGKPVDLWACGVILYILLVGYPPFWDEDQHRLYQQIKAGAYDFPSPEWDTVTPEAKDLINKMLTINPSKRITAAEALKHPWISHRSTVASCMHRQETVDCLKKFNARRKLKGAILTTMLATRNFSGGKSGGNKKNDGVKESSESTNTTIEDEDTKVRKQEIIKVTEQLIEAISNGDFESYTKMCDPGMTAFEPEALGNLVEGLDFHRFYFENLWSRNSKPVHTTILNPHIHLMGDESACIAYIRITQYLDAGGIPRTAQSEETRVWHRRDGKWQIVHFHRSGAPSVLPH

| Substance | stoichiometry N (eGFP-CaMKII) | molecular brightness, times that of eGFP (times that of eGFP) [1] |
| --- | --- | --- |
| eGFP-CaMKII (from UniProt P11275 1-478) (enzyme) | > 3 | – |
| enhanced green fluorescent protein (eGFP)-CaM (from UniProt P0DP23 1-149) (natural protein) | – | 3 |

Source: article PMC2599858
